The source of these data is article PMC7870876.

As usually defined, the stoichiometry N is the number of molecules, sites or subunits per partner or assembly.

This test deals with Synaptophysin (rat (endogenous in rat brain synaptic vesicles)), P07825. Put plainly: cross-linking; BS3 cross-linked synaptic vesicle proteins, gel electrophoresis, western blot with antibodies against Synaptobrevin-2 and Synaptophysin. Particulars: remark: other sources report otherwise. For orientation: In western blotting, separated proteins are transferred to a membrane and probed.

B1: Synaptophysin, P07825 1-307 (natural protein)
chain: MDVVNQLVAGGQFRVVKEPLGFVKVLQWVFAIFAFATCGSYTGELRLSVECANKTESALNIEVEFEYPFRLHQVYFDAPSCVKGGTTKIFLVGDYSSSAEFFVTVAVFAFLYSMGALATYIFLQNKYRENNKGPMMDFLATAVFAFMWLVSSSAWAKGLSDVKMATDPENIIKEMPMCRQTGNTCKELRDPVTSGLNTSVVFGFLNLVLWVGNLWFVFKETGWAAPFMRAPPGAPEKQPAPGDAYGDAGYGQGPGGYGPQDSYGPQGGYQPDYGQPASGGGGYGPQGDYGQQGYGQQGAPTSFSNQM
B1 displayed a stoichiometry N of 2.
